The source of these data is the supplement of paper PMC10266784.

Sequences and labels used below:
B1: library; numbered along this chain (parent)
chain: MAAAAAAAAEQQSSNGPVKKSMREKAVERRSVNKEHNSNFKAGYIPIDEDRLHKTGLRGRKGNLAICVIILLFILAVINLIITLVIWAVIRIGPNGCDSMEFHESGLLRFKQVSDMGVIHPLYKSTVGGRRNENLVITGNNQPIVFQQGTTKLSVENNKTSITSDIGMQFFDPRTQNILFSTDYETHEFHLPSGVKSLNVQKASTERITSNATSDLNIKVDGRAIVRGNEGVFIMGKTIEFHMGGNMELKAENSIILNGSVMVSTTRLPSSSSGDQLGSGDWVRYKLCMCADGTLFKVQVTSQNMGCQISDNPCGNTH

The variants in this series derive from B1. The series can be described thus: SGCB cell-surface expression functional score (HA stain, bin4 vs bin1, normalised to synonymous) (log10 ratio); higher = more cell-surface SGCB (functional). An outline of the steps:
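The functional score is a log ratio of variant frequency in the highest versus the lowest intensity bin, expressed as a median over codons and duplicate transductions. Codon-saturation libraries of HA-tagged, YFP-fused human beta-sarcoglycan were transduced by lentivirus at MOI <0.1 into HEK293 cells stably expressing alpha-, gamma- and delta-sarcoglycan, and the cells were stained on ice with Alexa Fluor 647 anti-HA, fixed and sorted into four 5% intensity bins before amplicon sequencing. Synonymous variants were scaled to mean 0, SD 0.5 within each section.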
MAAAAAAAAEQQSSNGPVKKSMREKAVERRSVNKEHNSNFKAGYIPIDEDRLHKTGLRGRKGNLAICVIILLFILAVINLIITLVIWAVIRIGPNGCDSMEFHESGLLRMKQVSDMGVIHPLYKSTVGGRRNENLVITGNNQPIVFQQGTTKLSVENNKTSITSDIGMQFFDPRTQNILFSTDYETHEFHLPSGVKSLNVQKASTERITSNATSDLNIKVDGRAIVRGNEGVFIMGKTIEFHMGGNMELKAENSIILNGSVMVSTTRLPSSSSGDQLGSGDWVRYKLCMCADGTLFKVQVTSQNMGCQISDNPCGNTH [F110M]: the “SGCB cell-surface expression functional score (log10)” value was -0.98.

For the variant MAAAAAAAAEQQSSNGPVKKSMREKAVERRSVNKEHNSNFKAGYIPIDEDRLHKTGLRGRKGNLAICVIILLFILAVINLIITLVIWAVIRIGPNGCDSMEFHESGLLRCKQVSDMGVIHPLYKSTVGGRRNENLVITGNNQPIVFQQGTTKLSVENNKTSITSDIGMQFFDPRTQNILFSTDYETHEFHLPSGVKSLNVQKASTERITSNATSDLNIKVDGRAIVRGNEGVFIMGKTIEFHMGGNMELKAENSIILNGSVMVSTTRLPSSSSGDQLGSGDWVRYKLCMCADGTLFKVQVTSQNMGCQISDNPCGNTH [F110C], the “SGCB cell-surface expression functional score (log10)” value is -1.22.

For MAAAAAAAAEQQSSNGPVKKSMREKAVERRSVNKEHNSNFKAGYIPIDEDRLHKTGLRGRKGNLAICVIILLFILAVINLIITLVIWAVIRIGPNGCDSMEFHESGLLRDKQVSDMGVIHPLYKSTVGGRRNENLVITGNNQPIVFQQGTTKLSVENNKTSITSDIGMQFFDPRTQNILFSTDYETHEFHLPSGVKSLNVQKASTERITSNATSDLNIKVDGRAIVRGNEGVFIMGKTIEFHMGGNMELKAENSIILNGSVMVSTTRLPSSSSGDQLGSGDWVRYKLCMCADGTLFKVQVTSQNMGCQISDNPCGNTH [F110D], the “SGCB cell-surface expression functional score (log10)” value was -1.65.

MAAAAAAAAEQQSSNGPVKKSMREKAVERRSVNKEHNSNFKAGYIPIDEDRLHKTGLRGRKGNLAICVIILLFILAVINLIITLVIWAVIRIGPNGCDSMEFHESGLLRHKQVSDMGVIHPLYKSTVGGRRNENLVITGNNQPIVFQQGTTKLSVENNKTSITSDIGMQFFDPRTQNILFSTDYETHEFHLPSGVKSLNVQKASTERITSNATSDLNIKVDGRAIVRGNEGVFIMGKTIEFHMGGNMELKAENSIILNGSVMVSTTRLPSSSSGDQLGSGDWVRYKLCMCADGTLFKVQVTSQNMGCQISDNPCGNTH [F110H]: the “SGCB cell-surface expression functional score (log10)” value is -0.19.

On to MAAAAAAAAEQQSSNGPVKKSMREKAVERRSVNKEHNSNFKAGYIPIDEDRLHKTGLRGRKGNLAICVIILLFILAVINLIITLVIWAVIRIGPNGCDSMEFHESGLLREKQVSDMGVIHPLYKSTVGGRRNENLVITGNNQPIVFQQGTTKLSVENNKTSITSDIGMQFFDPRTQNILFSTDYETHEFHLPSGVKSLNVQKASTERITSNATSDLNIKVDGRAIVRGNEGVFIMGKTIEFHMGGNMELKAENSIILNGSVMVSTTRLPSSSSGDQLGSGDWVRYKLCMCADGTLFKVQVTSQNMGCQISDNPCGNTH [F110E], for which the “SGCB cell-surface expression functional score (log10)” value is -1.42.

Regarding MAAAAAAAAEQQSSNGPVKKSMREKAVERRSVNKEHNSNFKAGYIPIDEDRLHKTGLRGRKGNLAICVIILLFILAVINLIITLVIWAVIRIGPNGCDSMEFHESGLLRKKQVSDMGVIHPLYKSTVGGRRNENLVITGNNQPIVFQQGTTKLSVENNKTSITSDIGMQFFDPRTQNILFSTDYETHEFHLPSGVKSLNVQKASTERITSNATSDLNIKVDGRAIVRGNEGVFIMGKTIEFHMGGNMELKAENSIILNGSVMVSTTRLPSSSSGDQLGSGDWVRYKLCMCADGTLFKVQVTSQNMGCQISDNPCGNTH [F110K], the “SGCB cell-surface expression functional score (log10)” value was -0.57.

MAAAAAAAAEQQSSNGPVKKSMREKAVERRSVNKEHNSNFKAGYIPIDEDRLHKTGLRGRKGNLAICVIILLFILAVINLIITLVIWAVIRIGPNGCDSMEFHESGLLRLKQVSDMGVIHPLYKSTVGGRRNENLVITGNNQPIVFQQGTTKLSVENNKTSITSDIGMQFFDPRTQNILFSTDYETHEFHLPSGVKSLNVQKASTERITSNATSDLNIKVDGRAIVRGNEGVFIMGKTIEFHMGGNMELKAENSIILNGSVMVSTTRLPSSSSGDQLGSGDWVRYKLCMCADGTLFKVQVTSQNMGCQISDNPCGNTH [F110L]: the “SGCB cell-surface expression functional score (log10)” value is -0.53.

For the variant MAAAAAAAAEQQSSNGPVKKSMREKAVERRSVNKEHNSNFKAGYIPIDEDRLHKTGLRGRKGNLAICVIILLFILAVINLIITLVIWAVIRIGPNGCDSMEFHESGLLRAKQVSDMGVIHPLYKSTVGGRRNENLVITGNNQPIVFQQGTTKLSVENNKTSITSDIGMQFFDPRTQNILFSTDYETHEFHLPSGVKSLNVQKASTERITSNATSDLNIKVDGRAIVRGNEGVFIMGKTIEFHMGGNMELKAENSIILNGSVMVSTTRLPSSSSGDQLGSGDWVRYKLCMCADGTLFKVQVTSQNMGCQISDNPCGNTH [F110A], the “SGCB cell-surface expression functional score (log10)” value was -1.33.

Turning to MAAAAAAAAEQQSSNGPVKKSMREKAVERRSVNKEHNSNFKAGYIPIDEDRLHKTGLRGRKGNLAICVIILLFILAVINLIITLVIWAVIRIGPNGCDSMEFHESGLLRIKQVSDMGVIHPLYKSTVGGRRNENLVITGNNQPIVFQQGTTKLSVENNKTSITSDIGMQFFDPRTQNILFSTDYETHEFHLPSGVKSLNVQKASTERITSNATSDLNIKVDGRAIVRGNEGVFIMGKTIEFHMGGNMELKAENSIILNGSVMVSTTRLPSSSSGDQLGSGDWVRYKLCMCADGTLFKVQVTSQNMGCQISDNPCGNTH [F110I], the “SGCB cell-surface expression functional score (log10)” value is -0.31.

On to MAAAAAAAAEQQSSNGPVKKSMREKAVERRSVNKEHNSNFKAGYIPIDEDRLHKTGLRGRKGNLAICVIILLFILAVINLIITLVIWAVIRIGPNGCDSMEFHESGLLRGKQVSDMGVIHPLYKSTVGGRRNENLVITGNNQPIVFQQGTTKLSVENNKTSITSDIGMQFFDPRTQNILFSTDYETHEFHLPSGVKSLNVQKASTERITSNATSDLNIKVDGRAIVRGNEGVFIMGKTIEFHMGGNMELKAENSIILNGSVMVSTTRLPSSSSGDQLGSGDWVRYKLCMCADGTLFKVQVTSQNMGCQISDNPCGNTH [F110G], for which the “SGCB cell-surface expression functional score (log10)” value was -1.18.
